Assay results reported in patent publication US10562947B2, “Compositions and methods for preventing or treating diseases, conditions or processes characterized by aberrant fibroblast proliferation and extracellular matrix deposition” (MOERAE MATRIX, INC., priority 2011, dated 2020).

Tests used:
Assay in all cases: Kinase Profiling Assay
Format in all cases: biochemical
Details in all cases: 100 μM peptide
[1] = target: T1, ARK5(h) (Homo sapiens, UniProt O60285)
T1 sequence (O60285 1-661): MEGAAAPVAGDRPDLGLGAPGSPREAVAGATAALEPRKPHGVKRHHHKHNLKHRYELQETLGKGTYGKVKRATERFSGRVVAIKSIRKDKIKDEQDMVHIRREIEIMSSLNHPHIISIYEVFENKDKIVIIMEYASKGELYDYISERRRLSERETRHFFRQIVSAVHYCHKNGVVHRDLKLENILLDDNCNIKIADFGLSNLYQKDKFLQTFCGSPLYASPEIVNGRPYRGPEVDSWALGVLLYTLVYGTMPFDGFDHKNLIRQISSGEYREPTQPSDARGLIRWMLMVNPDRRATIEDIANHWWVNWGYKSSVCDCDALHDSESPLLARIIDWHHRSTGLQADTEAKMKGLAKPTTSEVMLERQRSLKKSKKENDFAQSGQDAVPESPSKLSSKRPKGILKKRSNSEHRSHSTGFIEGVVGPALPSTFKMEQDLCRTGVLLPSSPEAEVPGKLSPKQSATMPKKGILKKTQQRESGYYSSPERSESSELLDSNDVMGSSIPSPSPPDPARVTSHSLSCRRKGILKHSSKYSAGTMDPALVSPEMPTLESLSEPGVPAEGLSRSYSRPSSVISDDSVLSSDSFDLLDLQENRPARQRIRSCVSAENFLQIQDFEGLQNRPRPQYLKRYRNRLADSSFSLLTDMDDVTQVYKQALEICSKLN
Outline: (§1)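 First, MK2 inhibitor peptides were applied to a panel of 266 human kinases; then each kinase's activity was measured in duplicate to assess off-target inhibition.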

[2] = target: cKit(D816H)(h) (Homo sapiens, UniProt P10721, D816H)
Outline: as §1

[3] = target: T2, NEK2(h) (Homo sapiens, UniProt P51955)
T2 sequence (P51955 1-445): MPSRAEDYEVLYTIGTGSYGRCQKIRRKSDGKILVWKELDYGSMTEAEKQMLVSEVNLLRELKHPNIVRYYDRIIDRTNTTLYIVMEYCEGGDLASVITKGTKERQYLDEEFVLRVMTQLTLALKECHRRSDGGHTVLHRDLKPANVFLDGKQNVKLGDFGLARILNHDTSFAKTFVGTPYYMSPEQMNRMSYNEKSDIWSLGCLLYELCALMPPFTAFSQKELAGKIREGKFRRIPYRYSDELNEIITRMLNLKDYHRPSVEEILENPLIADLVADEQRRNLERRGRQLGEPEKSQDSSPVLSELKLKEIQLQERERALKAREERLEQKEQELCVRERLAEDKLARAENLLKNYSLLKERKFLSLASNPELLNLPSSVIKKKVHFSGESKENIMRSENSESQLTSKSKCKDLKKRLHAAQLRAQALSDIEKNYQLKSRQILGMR
Outline: as §1

[4] = target: T3, DDR2(h) (Homo sapiens, UniProt Q16832)
T3 sequence (Q16832 22-855): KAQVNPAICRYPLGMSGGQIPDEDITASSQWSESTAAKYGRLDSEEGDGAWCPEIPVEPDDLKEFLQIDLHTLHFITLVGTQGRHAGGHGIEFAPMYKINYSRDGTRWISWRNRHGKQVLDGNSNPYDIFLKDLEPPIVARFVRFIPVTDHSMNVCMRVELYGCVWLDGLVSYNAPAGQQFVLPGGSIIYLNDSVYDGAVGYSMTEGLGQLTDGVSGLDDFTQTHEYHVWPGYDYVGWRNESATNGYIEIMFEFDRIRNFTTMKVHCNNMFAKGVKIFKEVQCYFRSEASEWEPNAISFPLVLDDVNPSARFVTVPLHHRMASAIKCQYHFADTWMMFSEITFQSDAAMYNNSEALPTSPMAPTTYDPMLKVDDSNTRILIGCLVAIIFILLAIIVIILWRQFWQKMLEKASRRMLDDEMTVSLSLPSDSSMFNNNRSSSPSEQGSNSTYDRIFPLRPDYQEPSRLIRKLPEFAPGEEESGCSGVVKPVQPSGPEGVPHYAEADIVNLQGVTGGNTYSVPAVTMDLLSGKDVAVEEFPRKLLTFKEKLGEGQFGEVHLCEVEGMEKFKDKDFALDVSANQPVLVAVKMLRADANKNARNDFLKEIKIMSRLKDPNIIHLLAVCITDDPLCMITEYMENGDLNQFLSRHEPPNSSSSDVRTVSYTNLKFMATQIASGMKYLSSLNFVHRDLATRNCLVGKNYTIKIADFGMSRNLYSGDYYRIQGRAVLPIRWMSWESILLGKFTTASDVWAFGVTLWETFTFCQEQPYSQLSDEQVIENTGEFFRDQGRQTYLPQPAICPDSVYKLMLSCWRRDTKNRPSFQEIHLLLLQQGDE
Outline: as §1

[5] = target: T4, PKCζ(h) (Homo sapiens, UniProt Q05513)
T4 construct: purchased Millipore (IC50 Profiler Express service)
T4 sequence (Q05513 1-592): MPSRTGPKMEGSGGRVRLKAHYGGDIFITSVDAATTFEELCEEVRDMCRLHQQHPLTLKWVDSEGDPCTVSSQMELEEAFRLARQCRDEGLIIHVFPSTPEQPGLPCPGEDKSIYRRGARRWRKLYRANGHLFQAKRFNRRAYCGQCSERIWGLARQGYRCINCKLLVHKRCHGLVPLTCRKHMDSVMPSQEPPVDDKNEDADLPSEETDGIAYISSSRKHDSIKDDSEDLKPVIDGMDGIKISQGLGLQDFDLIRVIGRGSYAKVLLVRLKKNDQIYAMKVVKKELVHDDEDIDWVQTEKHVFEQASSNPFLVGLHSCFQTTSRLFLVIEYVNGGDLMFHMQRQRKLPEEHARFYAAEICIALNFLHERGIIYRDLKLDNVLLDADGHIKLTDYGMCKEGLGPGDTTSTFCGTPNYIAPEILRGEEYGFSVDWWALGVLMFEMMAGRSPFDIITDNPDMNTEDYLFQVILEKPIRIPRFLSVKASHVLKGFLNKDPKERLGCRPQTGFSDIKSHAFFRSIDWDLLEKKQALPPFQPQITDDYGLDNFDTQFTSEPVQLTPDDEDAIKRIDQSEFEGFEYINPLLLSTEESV
Outline: as §1

[6] = target: EphA2(h) (Homo sapiens, UniProt P29317)
Outline: as §1

HRRIKAWLKKIKALARQLGVAA (Mammalian) [MMI-0500]
ARK5(h) % activity [1]: 20% | cKit(D816H)(h) % activity [2]: 194% | NEK2(h) % activity [3]: 0% | DDR2(h) % activity [4]: 79% | PKCζ(h) % activity [5]: 7%

KAFAKLAARLYRKALARQLGVAA [MMI-0400]
EphA2(h) % activity [6]: 17% | ARK5(h) % activity [1]: 69% | cKit(D816H)(h) % activity [2]: 143% | NEK2(h) % activity [3]: 61% | DDR2(h) % activity [4]: 95% | PKCζ(h) % activity [5]: 75%

FAKLAARLYRKALARQLGVAA [MMI-0300]
EphA2(h) % activity [6]: 31% | ARK5(h) % activity [1]: 78% | cKit(D816H)(h) % activity [2]: 126% | NEK2(h) % activity [3]: 78% | DDR2(h) % activity [4]: 94% | PKCζ(h) % activity [5]: 81%

YARAAARQARAKALNRQLGVA (Mammalian) [MMI-0200]
EphA2(h) % activity [6]: 95% | ARK5(h) % activity [1]: 93% | NEK2(h) % activity [3]: 97% | PKCζ(h) % activity [5]: 98%
